Experimental data taken from US20080095778A1, “Treatment Of Fungal Infections” (priority 2004, published 2008).

Legend:
A. fumigatus CI2 = assay: Broth microdilution (NCCLS M38-A) checkerboard assay, A. fumigatus CI2; assay type: cell-based, Aspergillus fumigatus; details: for MIC-0 of each agent, Alone: Table 1, no growth endpoint; for MIC-0 of each agent, Combination: amphotericin B and Mycograb in combination; for FIC: MIC in combination divided by MIC alone
Experimental: (§1) Stock solutions of amphotericin B (AMB, Sigma), caspofungin (Caspo), voriconazole (VOR) and itraconazole (ITZ) were prepared according to the National Committee for Clinical Laboratory Standards (M38-A) in RPMI 1640 with glutamine broth medium, buffered to pH 7.0 with […] morpholinopropanesulphonic acid (MOPS). AMB stock solutions were prepared as a 100× series in 100% dimethyl sulfoxide (DMSO) and diluted in medium to a concentration range of 0.03125 to 16 μg/ml. Caspofungin, voriconazole and itraconazole were tested at a concentration range of 0.03125 to 1024 μg/ml, and Mycograb® (NeuTec Pharma plc) at a concentration range of 0.25 to 1024 μg/ml.
(§2) Clinical isolates of Aspergillus fumigatus (2), A. flavus (1), A. terreus (1) and A. niger (1) were obtained from the Department on Microbiology, Manchester Royal Infirmary, Manchester, UK.
(§3) An inoculum suspension was prepared in buffered RPMI with glutamine medium by probing colonies from a 7 day old Sabouraud plate. The suspension was adjusted to 0.09-0.11 (80% to 82% transmittance) for Aspergillus species, 0.15-0.17 (68% to 70% transmittance). The inoculum was diluted a further 1:2 when added to the antifungal agents in the assay (final inoculum (0.4×10^4 to 0.5×10^4). For AMB and Mycograb®, either alone or in combination, the endpoint was determined as the concentration to produce no growth (MIC-0). Microtitre plates were incubated at 37° C. without agitation for 48 hours for Aspergillus species. For caspofungin, voriconazole and itraconazole, either alone or in combination with Mycograb® antibody, the MIC endpoint was determined as the concentration resulting in a prominent decrease in turbidity (≧50% growth inhibition, MIC-2) compared to the growth control (Keele et al. 2001; Espinel-Ingroff 2003). The final inhibitory concentration (FIC) was calculated for each drug by dividing the MIC in the presence of the second drug by the MIC in its absence. For each combination, two fractions were produced which were summated to produce the fractional final inhibitory concentration. Synergy was defined by value of ≦0.5, indifference was defined by a value of >0.5 to <4.0, and antagonism was defined by a value of ≧4.0 (Matthews et al., 2003).

A. flavus = assay: Broth microdilution (NCCLS M38-A) checkerboard assay, A. flavus; assay type: cell-based; details: for MIC-0 of each agent, Alone: Table 1, no growth endpoint; for MIC-0 of each agent, Combination: amphotericin B and Mycograb in combination; for FIC: MIC in combination divided by MIC alone
Experimental: as §1, §2, §3

A. niger = assay: Broth microdilution (NCCLS M38-A) checkerboard assay, A. niger; assay type: cell-based; details: for MIC-0 of each agent, Alone: Table 1, no growth endpoint; for MIC-0 of each agent, Combination: amphotericin B and Mycograb in combination; for FIC: MIC in combination divided by MIC alone
Experimental: as §1, §2, §3

A. terreus = assay: Broth microdilution (NCCLS M38-A) checkerboard assay, A. terreus; assay type: cell-based; details: for MIC-0 of each agent, Alone: Table 1, no growth endpoint; for MIC-0 of each agent, Combination: amphotericin B and Mycograb in combination; for FIC: MIC in combination divided by MIC alone
Experimental: as §1, §2, §3

Aspergillus species = assay: Antifungal activity with Mycograb antibody, summary over the Aspergillus species examined; assay type: cell-based; details: summary of Tables 1-4; for Antifungal activity / surprising effect when used in combination with Mycograb antibody: agent combined with Mycograb antibody
Experimental: as §3

A. fumigatus = assay: Broth microdilution (NCCLS M38-A) checkerboard assay, A. fumigatus; assay type: cell-based, Aspergillus fumigatus; details: for MIC-0 of each agent, Alone: Table 1, no growth endpoint; for MIC-0 of each agent, Combination: amphotericin B and Mycograb in combination; for FIC: MIC in combination divided by MIC alone
Experimental: as §1, §2, §3

Candida strains = details: WO 01/76627, cited from earlier work
[1] = amphotericin B and Mycograb combination
[2] = Table 2, ≧50% growth inhibition endpoint
[3] = Table 3, ≧50% growth inhibition endpoint
[4] = Table 4, ≧50% growth inhibition endpoint
[5] = caspofungin and Mycograb in combination
[6] = itraconazole and Mycograb in combination
[7] = voriconazole and Mycograb in combination

C[C@@H]1[C@H](O)[C@@H](C)/C=C/C=C/C=C/C=C/C=C/C=C/C=C/[C@H](O[C@@H]2O[C@H](C)[C@@H](O)[C@H](N)[C@@H]2O)C[C@@H]2O[C@](O)(C[C@@H](O)C[C@@H](O)[C@H](O)CC[C@@H](O)C[C@@H](O)CC(=O)O[C@H]1C)C[C@H](O)[C@H]2C(=O)O [AMB, amphotericin B]
MIC-0 of each agent, Alone (A. fumigatus CI2): 2 µg/mL
FICI (A. fumigatus CI2; [1]): 0.531
Outcome (A. fumigatus CI2; [1]): Indifferent (indifference was defined by a value of >0.5 to <4.0)
MIC-0 of each agent, Combination (A. fumigatus CI2): 1 µg/mL
MIC-0 of each agent, Alone (A. flavus): 4 µg/mL
FICI (A. flavus; [1]): 2
Outcome (A. flavus; [1]): Indifferent (indifference was defined by a value of >0.5 to <4.0)
MIC-0 of each agent, Combination (A. flavus): 4 µg/mL
MIC-0 of each agent, Alone (A. niger): 2 µg/mL
FICI (A. niger; [1]): 0.5
Outcome (A. niger; [1]): Indifferent (indifference was defined by a value of >0.5 to <4.0)
MIC-0 of each agent, Combination (A. niger): 1 µg/mL
MIC-0 of each agent, Alone (A. terreus): 4 µg/mL
FICI (A. terreus; [1]): 2
Outcome (A. terreus; [1]): Indifferent (indifference was defined by a value of >0.5 to <4.0)
MIC-0 of each agent, Combination (A. terreus): 4 µg/mL
FIC (A. terreus; amphotericin B and Mycograb): 1 µg/mL
Antifungal activity / surprising effect when used in combination with Mycograb antibody (Aspergillus species): not observed
MIC-0 of each agent, Alone (A. fumigatus): 2 µg/mL
FICI (A. fumigatus; [1]): 0.5
Outcome (A. fumigatus; [1]): Indifferent (indifference was defined by a value of >0.5 to <4.0)
MIC-0 of each agent, Combination (A. fumigatus): 1 µg/mL
Efficacy of antifungal agent in the presence of the antibody (Candida strains; wide variety of fungal strains (e.g. Candida species)): significantly enhanced

OC(Cn1cncn1)(Cn1cncn1)c1ccc(F)cc1F [fluconazole]
Antifungal activity / surprising effect when used in combination with Mycograb antibody (Aspergillus species): not observed
Synergy in combination with Mycograb antibody against Candida strains (Candida strains; prior finding): little synergy

B1: Mycograb: antibody specific for a fungal hsp90 stress protein epitope (SEQ ID NO: 1), comprising the sequence of SEQ ID NO: 3, expressed in E. coli (protein)
scFv: HMAEVQLVESGAEVKKPGESLRISCKGSGCIISSYWISWVRQMPGKGLEWMGKIDPGDSYINYSPSFQGHVTISADKSINTAYLQWNSLKASDTAMYYCARGGRDFGDSFDYWGQGTLVTVSSGGGGSGGGGSGGGGSDVVMTQSPSFLSAFVGDRITITCRASSGISRYLAWYQQAPGKAPKLLIYAASTLQTGVPSRFSGSGSGTEFTLTINSLQPEDFATYYCQHLNSYPLTFGGGTKVDIKRAA
modifications: Synthetically generated peptide
MIC-0 of each agent, Alone (A. fumigatus CI2): 512 µg/mL
MIC-2 of each agent, Alone (A. fumigatus CI2; [2]): 1024 µg/mL
MIC-2 of each agent, Alone (A. fumigatus CI2; [3]): 1024 µg/mL
MIC-2 of each agent, Alone (A. fumigatus CI2; [4]): 1024 µg/mL
MIC-0 of each agent, Combination (A. fumigatus CI2): 16 µg/mL
FIC (A. fumigatus CI2; amphotericin B and Mycograb): 0.031
MIC-2 of each agent, Combination (A. fumigatus CI2; [5]): 16 µg/mL
FIC (A. fumigatus CI2; caspofungin and Mycograb): 0.062
MIC-2 of each agent, Combination (A. fumigatus CI2; [6]): 8 µg/mL
FIC (A. fumigatus CI2; itraconazole and Mycograb): 0.008
MIC-2 of each agent, Combination (A. fumigatus CI2; [7]): 0.25 µg/mL
FIC (A. fumigatus CI2; voriconazole and Mycograb): 0.0002
MIC-0 of each agent, Alone (A. flavus): 512 µg/mL
MIC-2 of each agent, Alone (A. flavus; [2]): 512 µg/mL
MIC-2 of each agent, Alone (A. flavus; [3]): 512 µg/mL
MIC-2 of each agent, Alone (A. flavus; [4]): 512 µg/mL
MIC-0 of each agent, Combination (A. flavus): 512 µg/mL
FIC (A. flavus; amphotericin B and Mycograb): 1
MIC-2 of each agent, Combination (A. flavus; [5]): 0.0625 µg/mL
FIC (A. flavus; caspofungin and Mycograb): 0.0001
MIC-2 of each agent, Combination (A. flavus; [6]): 0.25 µg/mL
FIC (A. flavus; itraconazole and Mycograb): 0.0005
MIC-2 of each agent, Combination (A. flavus; [7]): 0.25 µg/mL
FIC (A. flavus; voriconazole and Mycograb): 0.0005
MIC-0 of each agent, Alone (A. niger): 512 µg/mL
MIC-2 of each agent, Alone (A. niger; [2]): 256 µg/mL
MIC-2 of each agent, Alone (A. niger; [3]): 16 µg/mL
MIC-2 of each agent, Alone (A. niger; [4]): 16 µg/mL
MIC-0 of each agent, Combination (A. niger): 4 µg/mL
FIC (A. niger; amphotericin B and Mycograb): 0.01
MIC-2 of each agent, Combination (A. niger; [5]): 0.0625 µg/mL
FIC (A. niger; caspofungin and Mycograb): 0.0001
MIC-2 of each agent, Combination (A. niger; [6]): 4 µg/mL
FIC (A. niger; itraconazole and Mycograb): 0.25
MIC-2 of each agent, Combination (A. niger; [7]): 16 µg/mL
FIC (A. niger; voriconazole and Mycograb): 1
MIC-0 of each agent, Alone (A. terreus): 512 µg/mL
MIC-2 of each agent, Alone (A. terreus; [2]): 1024 µg/mL
MIC-2 of each agent, Alone (A. terreus; [3]): 1024 µg/mL
MIC-2 of each agent, Alone (A. terreus; [4]): 1024 µg/mL
MIC-0 of each agent, Combination (A. terreus): 512 µg/mL
FIC (A. terreus; amphotericin B and Mycograb): 1 µg/mL
MIC-2 of each agent, Combination (A. terreus; [5]): 32 µg/mL
FIC (A. terreus; caspofungin and Mycograb): 0.031 µg/mL
MIC-2 of each agent, Combination (A. terreus; [6]): 32 µg/mL
FIC (A. terreus; itraconazole and Mycograb): 0.031 µg/mL
MIC-2 of each agent, Combination (A. terreus; [7]): 0.25 µg/mL
FIC (A. terreus; voriconazole and Mycograb): 0.0002 µg/mL
Growth inhibition by antibody on its own (Aspergillus species; Mycograb antibody alone): able to inhibit growth of certain Aspergillus species
MIC-0 of each agent, Alone (A. fumigatus): 512 µg/mL
MIC-2 of each agent, Alone (A. fumigatus; [2]): 1024 µg/mL
MIC-2 of each agent, Alone (A. fumigatus; [3]): 1024 µg/mL
MIC-2 of each agent, Alone (A. fumigatus; [4]): 1024 µg/mL
MIC-0 of each agent, Combination (A. fumigatus): 4 µg/mL
FIC (A. fumigatus; amphotericin B and Mycograb): 0.01
MIC-2 of each agent, Combination (A. fumigatus; [5]): 32 µg/mL
FIC (A. fumigatus; caspofungin and Mycograb): 0.062
MIC-2 of each agent, Combination (A. fumigatus; [6]): 16 µg/mL
FIC (A. fumigatus; itraconazole and Mycograb): 0.016
MIC-2 of each agent, Combination (A. fumigatus; [7]): 0.25 µg/mL
FIC (A. fumigatus; voriconazole and Mycograb): 0.0002
